Here are results for five molecules from paper PMC11154713 (The Journal of Biological Chemistry, 2024).

For experiment [1], the system named is untransfected CHO-K1 cells. The experiment in a line: cAMP assay in untransfected CHO-K1 cells. In kind it is cell-based. The settings on record: vodo-C1 30 µM; CP55940 and 2-AG 10 µM and 1 µM, alone or with 10 μM vBCL1-4. Background: Changes in cAMP serve as a functional read-out for many G protein-coupled receptors.
The target of experiment [2] is T1, CB2R (Homo sapiens, UniProt P34972). In kind it is cell-based.
Experiment [3] addresses T1, CB2R. The experiment in a line: cell-based. Format: cell-based. As to conditions: for decrease of efficacy of 2-AG to recruit β-arrestin-2 / decrease of efficacy of CP55940 to recruit β-arrestin-2: single point, peptide 10 μM; for decrease of efficacy of 2-AG to recruit β-arrestin-2: 2-AG 1 μM; for decrease of efficacy of CP55940 to recruit β-arrestin-2: CP55940 1 μM.
Experiment [4] addresses T1, CB2R. The experiment in a line: cAMP assay. In kind it is cell-based. As to conditions: varying concentrations, inverse agonist control.
Experiment [5] concerns the target T1, CB2R. The experiment in a line: Radioligand displacement of [3H]-CP55940 at human CB2R membrane preparations. The settings on record: peptide 100 nM and 10 μM; [3H]-CP55940 0.5 nM mixed with cold CP55940 4.5 nM. Format: binding.
Experiment [6] concerns the target T1, CB2R. The experiment in a line: cAMP assay in the absence of forskolin. The settings on record: 10 µM peptide with varying CP55940, no forskolin. Format: cell-based.

Where two headings read alike, the source gives them in different places. Bridges are numbered along the chain shown (N, C = ends). Where no end group is shown, it is not given here.

T1 sequence (P34972 whole entry): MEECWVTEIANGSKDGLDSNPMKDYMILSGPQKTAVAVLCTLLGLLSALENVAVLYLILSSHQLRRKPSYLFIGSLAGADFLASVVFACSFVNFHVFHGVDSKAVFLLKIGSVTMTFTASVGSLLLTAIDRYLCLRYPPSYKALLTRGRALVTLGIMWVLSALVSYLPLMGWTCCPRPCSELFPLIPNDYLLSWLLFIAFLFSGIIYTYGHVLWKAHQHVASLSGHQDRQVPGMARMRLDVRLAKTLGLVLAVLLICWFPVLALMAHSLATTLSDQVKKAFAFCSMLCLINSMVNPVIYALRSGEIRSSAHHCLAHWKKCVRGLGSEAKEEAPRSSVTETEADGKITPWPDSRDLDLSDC

Usually EC50 stands for the concentration needed to bring the measured effect to its halfway point. A high value points to a need for much substance. Regarding `CCCCC/C=C\C/C=C\C/C=C\C/C=C\CCCC(=O)OC(CO)CO` [2-AG, 2-arachidonoylglycerol, reference compound], the “changes in cAMP levels in untransfected cells” value in experiment [1] was “no changes in cAMP levels”. Moreover, the 50% effective concentration (EC50) at CB2R [2] (EC50 of agonist alone, agonist alone) is 480 nM; on CB2R [3], 600 nM.
In the case of `CCCCCCC(C)(C)c1ccc([C@@H]2C[C@H](O)CC[C@H]2CCCO)c(O)c1` [CP55940], the “changes in cAMP levels in untransfected cells” value in experiment [1] is “no changes in cAMP levels”.
SR144528: on CB2R [4], the “effect on basal levels of CB2R activity” value was “reduced the basal levels of CB2R activity”.
“vBCL1: vodo-C1-inspired bicyclic loop peptide, loops 1 and 2, 10 residues, cyclized with 1,3,5-tris-(bromomethyl)-benzene (CGETCFTGKC; linker 1-5-10 via 1,3,5‑tris‑(bromomethyl)‑benzene (inferred))”: in the experiment with CB2R [2] (10 μM peptide), the “EC50 fold shift relative to 2-AG” value is around 6 fold and the “EC50 fold shift relative to WIN55,212-2” value is around 6 fold. For the same molecule, in the experiment with CB2R [3], the “decrease of efficacy of 2-AG to recruit β-arrestin-2” value is reported as “no or only minor (not significant) changes” and the “decrease of efficacy of CP55940 to recruit β-arrestin-2” value was “no or only minor (not significant) changes”.
“vBCL3: vodo-C1-inspired bicyclic loop peptide, loops 5 and 6, 15 residues, cyclized with 1,3,5-tris-(bromomethyl)-benzene (CEWPICTKNGDPLPC; linker 1-6-15 via 1,3,5‑tris‑(bromomethyl)‑benzene (inferred))”: in the experiment with CB2R [2] (10 μM peptide), the “EC50 fold shift relative to 2-AG” value is recorded as around 6 fold, the “EC50 fold shift relative to WIN55,212-2” value was around 6 fold, the “decrease of the efficacy of CP55940” value is listed as around 40% and the “effect on basal activity (WIN55,212-2 curve)” value was “reduced the basal activity”. In addition, the “effect on basal response (CP55940 curve)” value with CB2R [2] (10 μM peptide) is reported as “reduction in basal response”. Further, in the experiment with CB2R [3], the “decrease of efficacy of 2-AG to recruit β-arrestin-2” value is “no or only minor (not significant) changes” and the “decrease of efficacy of CP55940 to recruit β-arrestin-2” value is “no or only minor (not significant) changes”. In addition, the “binding to the receptor (two-point displacement)” value with CB2R [5] is on record as “did not bind to the receptor”. The “intrinsic inverse agonist activity” value with CB2R [6] is on record as “lacks intrinsic inverse agonist activity”.
